Reference: patent US20240368283A1 (published 2024)

T1: human FcγRIIβ (human, UniProt P31994 46-217, limits assumed)
T1 construct: also called FcγRIIb; R2b
T1 sequence (looked up): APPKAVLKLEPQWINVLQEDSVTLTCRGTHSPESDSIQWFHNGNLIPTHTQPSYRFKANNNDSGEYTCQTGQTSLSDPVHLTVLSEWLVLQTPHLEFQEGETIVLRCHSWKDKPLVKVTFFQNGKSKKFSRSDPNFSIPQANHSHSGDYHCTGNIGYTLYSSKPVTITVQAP


Experiments:
human FcγRIIβ [1] = biological target: T1, human FcγRIIβ; test: SPR, antibody captured on ProA/G HC30M chip, recombinant human FcγRIIβ injected (4 nM-5 uM); average kinetic KD
Procedure: (§1) Example 52: The binding of anti-FcγRIIβ antibodies to human FcγRIIβ was evaluated. Antibodies were captured on ProA/G HC30M chip at 5 ug/mL, 1 ug/mL, and 0.2 ug/mL for 15 minutes. Six buffer injections were made over the chip followed by injections of increasing concentrations of recombinant human FcγRIIβ (4 nm-5 uM). The association was measured during each injection for 5 minutes and the dissociation was measured for 10 minutes post injection with buffer flow (1×HBSTE+ BSA).

human FcγRIIβ [2] = biological target: T1, human FcγRIIβ; test: SPR, antibody captured on ProA/G HC30M chip, recombinant human FcγRIIβ injected (4 nM-5 uM); average steady state KD
Procedure: as §1

human FcγRIIβ [3] = biological target: T1, human FcγRIIβ; test: Fc receptor affinity, Table 29 (method for Fc receptors not told in Example 43)
FcγRI = test: as above
Chain of FcγRI (P12314 16-292): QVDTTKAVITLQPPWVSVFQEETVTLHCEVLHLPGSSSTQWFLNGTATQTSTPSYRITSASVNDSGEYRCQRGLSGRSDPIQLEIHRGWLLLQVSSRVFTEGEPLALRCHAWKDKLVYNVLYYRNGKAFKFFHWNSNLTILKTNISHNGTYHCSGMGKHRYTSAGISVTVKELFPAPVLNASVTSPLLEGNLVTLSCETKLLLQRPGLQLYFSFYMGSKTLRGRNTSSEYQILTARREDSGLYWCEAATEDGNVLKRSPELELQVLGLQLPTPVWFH

[4] = biological target: PD-1 (in the reporter cells of the PD-1 agonism assay) (Homo sapiens (Human), UniProt Q15116 25-288); test: cell-based or functional assay
Chain of PD-1 (in the reporter cells of the PD-1 agonism assay) (Q15116 25-288 limits assumed): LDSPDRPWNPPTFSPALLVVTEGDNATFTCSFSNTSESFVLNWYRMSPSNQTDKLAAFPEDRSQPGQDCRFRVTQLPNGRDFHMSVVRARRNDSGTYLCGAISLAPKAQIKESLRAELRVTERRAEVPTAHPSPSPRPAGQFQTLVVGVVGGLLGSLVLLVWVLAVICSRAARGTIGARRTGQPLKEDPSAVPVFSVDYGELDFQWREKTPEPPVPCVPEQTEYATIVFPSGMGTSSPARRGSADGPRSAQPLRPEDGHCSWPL

Recombinant human PD-1 = biological target: T2, Recombinant human PD-1 (human, UniProt Q15116 25-170, limits assumed); test: BLI (Octet RED96), antibody captured on anti-human IgG Fc biosensors, PD-1 titrated; steady state (footnote *)
T2 construct: Soluble recombinant analyte in BLI; also called huPD1
T2 sequence (Q15116 25-170 limits assumed): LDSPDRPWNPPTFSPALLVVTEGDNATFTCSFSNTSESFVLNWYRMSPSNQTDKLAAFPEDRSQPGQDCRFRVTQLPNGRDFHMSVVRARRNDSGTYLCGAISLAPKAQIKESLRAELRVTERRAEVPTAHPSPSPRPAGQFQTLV

Cyno PD-1 = biological target: T3, Cyno PD-1 (cyno); test: as above
T3 construct: also called cynomolgus PD-1; cyPD1

human FcγRIIβ [5] = biological target: T1, human FcγRIIβ; test: ratio of KD on FcγRIIα R131 to KD on FcγRIIβ, Table 29

Kd (human FcγRIIβ [1]) [nM]	Kd (human FcγRIIβ [2]) [nM]	Kd (human FcγRIIβ [3]) [nM]	Affinity to RI relative to WT (FcγRI) [fold lower than WT]	Emax [4]	log EC50 [4]	Kd (Recombinant human PD-1) [nM]	Kd (Cyno PD-1) [nM]	R131/2b (fold) (human FcγRIIβ [5])	Binder
37.3	40								ARB49 (antibody, human IgG1, kappa, copies: 2 + 2) heavy: not shown light: EIVMTQSPATLSLSPGERATLSCRASQSLSSSHLAWYQQKPGQAPRLLIYDASIRVPGIPARFSGSGSGTDFTLTISSLEPEDFAVYYCQQYAVPPITFGGGTKVEIKRTVAAPSVFIFPPSDEQLKSGTASVVCLLNNFYPREAKVQWKVDNALQSGNSQESVTEQDSKDSTYSLSSTLTLSKADYEKHKVYACEVTHQGLSSPVTKSFNRGEC
		3100	> 10	2.2	-8.3	1000	600		TA359 (antibody, human IgG1, lambda) heavy: not shown light: QAVVTQEPSLTVSPGGTVTLTCRSSTGAVTTSNYANWVQQKPGQAFRGLIGGTNNRAPGVPDRFSGSILGNKAALTITGAQADDESDYYCALWYSNHFIFGSGTKVTVLGQPKAAPSVTLFPPSSEELQANKATLVCLISDFYPGAVTVAWKADSSPVKAGVETTTPSKQSNNKYAASSYLSLTPEQWKSHRSYSCQVTHEGSTVEKTVAPTECS
		3500	> 10	2.1	-8.3			9.7	TA322 (antibody, human IgG1, kappa) heavy: not shown light: QAVVTQESALTTSPGETVTLTCRSSTGAVTTSNYANWVQEKPDHLFTGLIGGTNNRAPGVPARFSGSLIGDKAALTITGAQTEDEAIYFCALWYSNHFIFGSGTKVTVLRTVAAPSVFIFPPSDEQLKSGTASVVCLLNNFYPREAKVQWKVDNALQSGNSQESVTEQDSKDSTYSLSSTLTLSKADYEKHKVYACEVTHQGLSSPVTKSFNRGEC
